These results are taken from patent US10066025B2, “Compositions and methods for detecting, treating and preventing diseases and disorders” (YALE UNIVERSITY, priority 2012, dated 2018).

For assay [1] the following is noted: cited from earlier work.
The subject of assay [2] is PI3K/AKT and MAPK pathways. In words: AKT and MAPK signaling and Bcl-2 expression by western blot. The format is cell-based, human. How it is done:
FIG. 12, comprising FIGS. 12A through 12E, is a set of images and graphs showing renalase upregulates Bcl-2, activates PI3K/AKT, ERK, p38, and inhibits JNK. Western blot analysis; P− indicates phosphorylated, activated proteins; signals normalized to GAPDH loading control, then changes in protein phosphorylation (increase=activation, decrease=inhibition) from time 0 are calculated. FIG. 12A: HK-2 and HUVEC cells incubated with renalase for 24 hrs; FIG. 12B: Western blot of time course of AKT and MAPK signaling by renalase, HK-2 cells incubated with renalase for indicated time; changes over baseline in 4c-d are significant (p<0.05); FIG. 12C: Activation of AKT(T308), AKT(5473) and ERK; FIG. 12D: Inhibition of JNK; FIG. 12E: Marked and sustained (60 min) upregulation of p38 by renalase in the presence of cisplatin, western blot for time course, REN=renalase, CP=cisplatin.
MAPK signaling by renalase and renalase peptides. Western blot analysis; ERK: Extracellular signal-Regulated Kinase 1 and 2; JNK: c-Jun N-terminal Kinases; AKT: protein kinase B; p-indicates phosphorylated, activated proteins; representative blot, n=3 (FIG. 20A). Renalase activates AKT (FIG. 20B). Western blot analysis; P− indicates phosphorylated, activated proteins Representative blot, n=3 (FIG. 20B, left panel). Signals normalized to GAPDH loading control; n=3, change over baseline statistically significant (P<0.05) from 1-60 min for ERK, p38 and AKT (T308), and at 30 min only for AKT (S473) (FIG. 20B, right panel). ERK or AKT inhibition abrogates protective effect of RP-H220 (FIG. 20C). Plasma creatinine levels from mice subjected to sham-surgery or to renal ischemia and reperfusion (IR); Renalase WT mice were subjected to sham-surgery or to 30 min renal IR. For mice subjected to renal IR, RP-H220 or vehicle (saline) was injected 10 min prior to renal ischemia. Some animals were pretreated with either the ERK inhibitor PD98059 or the PI3K/AKT inhibitor wortmanin. (N=6-8 per group). *: P<0.05 vs. vehicle-treated mice subjected to sham-surgery; #: P<0.05 vs. vehicle-treated WT mice subjected to renal IR (FIG. 20C).
In general terms: Immunoblotting shows a protein as a band on a membrane.

Assay [3] relates to renal ischemia/reperfusion (IR) injury. Kind of assay: Murine model of renal ischemia/reperfusion (IR) injury, plasma creatinine. Type of assay: in vivo, mice. The protocol: Adult male renalase deficient (KO) mice (Wu et al., 2011, Kidney Int 79: 853-860) on a C57BL/6 background were subjected to renal ischemia/reperfusion (IR) as described (Kim et al., 2009, Kidney Int 75: 809-823; Kim et al., 2010, Am J Physiol Renal Physiol 299(2):F347-58). Renalase KO or wild type (WT) mice (C57BL/6 from Harlan Labs, Indianapolis, Ind.) were subjected to sham-operation or to 20 min. (moderate) or 30 min. (severe) renal ischemia and 24 hr. reperfusion. To test the renal protective effects of recombinant human renalase, mice were pretreated with saline (vehicle) or with recombinant renalase (0.5, 1.5 or 4.5 mg/kg, s.c.) 10 min. prior to 30 min. renal ischemia. It was also tested whether renalase treatment after completion of renal ischemia also provides renal protection. Separate cohorts of mice were treated with saline or with renalase (1.5 mg/kg, s.c.) 30 min. or 60 min. after reperfusion of the ischemic kidney. To test whether blocking alpha receptors would mimic the renal protective effects of human recombinant renalase administration, phentolamine (an alpha receptor antagonist, 5 mg/kg, i.p.) was given in some mice 15 min. before renal ischemia.
Plasma creatinine was measured as described with an enzymatic creatinine reagent kit according to the manufacturer's instructions (Thermo Fisher Scientific, Waltham, Mass.) (Slot, 1965, J Clin Lab Invest 17: 381-387).
After animal care and use committee approval, adult male C57BL/6 (Harlan Labs, Indianapolis, Ind.) were subjected to sham-operation or to 30 minutes of renal ischemia followed by 24 hrs of reperfusion as previously described (Lee et al., 2004, American journal of physiology. Renal physiology 286:F298-306). To test the renal protective effects of renalase peptides (RP-220, RP-H220 and RP-224), mice were pretreated with saline (vehicle) or with renalase peptides (100 μg subcutaneous) 10 to 30 minutes prior to renal ischemia.
Blood was collected from mice anesthetized with isoflurane via cardiac puncture into a heparinized syringe and was subsequently centrifuged to separate plasma. Samples were submitted to the Yale O'Brien Kidney Center for measurement of BUN and creatinine. Plasma creatinine was measured either by an enzymatic creatinine reagent kit according to the manufacturer's instructions (Thermo Fisher Scientific, Waltham, Mass.) or by HPLC. These methods of creatinine measurement largely eliminate the interferences from mouse plasma chromagens, known to occur with the Jaffe method.

Another assay relates to HK-2 cells. In words: HK-2 cell necrosis induced with 2 mM H2O2 (LDH release). The format is cell-based, human. The protocol: HK2 cells (human proximal tubular line) obtained from ATTC (Manassas, Va., USA) were cultured in DMEM/F12 supplemented with glutamine, 10% FBS and antibiotics, and were maintained at 37° C. in 5% CO2. Cells were exposed to cisplatin (20 μM) in the presence or absence of renalase for 24 hrs, and cell viability was assessed by the WST1 method (Roche Applied Science, Germany). Cells were then harvested in RIPA buffer (20 mM Tris-HCl pH 7.5, 150 mM NaCl, 1 mM Na2EDTA, 1 mM EGTA, 1% NP-40, 1% sodium deoxycholate, 2.5 mM sodium pyrophosphate, 1 mM β-glycerophosphate, 1 mM Na3VO4, 1 μg/ml leupeptin) supplemented with a protease and phosphatase inhibitor cocktail (Roche Applied Science, Germany). Proteins were separated by SDS-PAGE and Western blotting was carried out using the following antibodies: anti-renalase monoclonal (Desir et al., 2012, J Am Heart Assoc. 1:e002634; (Lee et al., 2013, J Am Soc Nephrol 24:445-455); anti caspase 3 (Cell Signaling Technology, MA, USA) and anti Bcl2 (Thermo Scientific, USA). Necrotic injury in HK-2 cells (ATCC, Manassas, Va.) was induced with exposure to 2 mM H2O2 for 2-8 hr and lactate dehydrogenase (LDH) released into cell culture media was measured as described using a commercial LDH assay kit (Promega, Madison, Wis.) (Lee and Emala, 2002, American journal of physiology. Renal physiology 282:F844-852).
A general note: Release of lactate dehydrogenase indicates damage to the cell membrane.

B1: recombinant renalase: human recombinant renalase, 38 kDa FAD-dependent amine oxidase; renalase polypeptide SEQ ID NO: 9 or 10 (protein, UniProt Q5VYX0 18-342, looked up)
Renalase: ALLRRQTSGPLYLAVWDKAEDSGGRMTTACSPHNPQCTADLGAQYITCTPHYAKKHQRFYDELLAYGVLRPLSSPIEGMVMKEGDCNFVAPQGISSIIKHYLKESGAEVYFRHRVTQINLRDDKWEVSKQTGSPEQFDLIVLTMPVPEILQLQGDITTLISECQRQQLEAVSYSSRYALGLFYEAGTKIDVPWAGQYITSNPCIRFVSIDNKKRNIESSEIGPSLVIHTTVPFGVTYLEHSIEDVQELVFQQLENILPGLPQPIATKCQKWRHSQVTNAAANCPGQMTLHHKPFLACGGDGFTQSNFDGCITSALCVLEALKNYI
As for B1, the “increase in rate of epinephrine metabolism in the presence of NADH” value in assay [1] is reported as 18 fold. Also, in assay [2] (HK-2 and human vein endothelial cells (HUVEC) at 24 hrs), the Bcl-2 expression entry is reported as “upregulates Bcl-2 expression”. The “decrease in JNK-p54/p46 phosphorylation” value in assay [2] (HK-2 cells) was ~95%. In assay [2] (HK-2 cells in culture), the “AKT and MAPK signaling (phosphorylation of ERK, p38, AKT)” value is “rapid and transient increase in phosphorylated”. Besides, in assay [2] (at 15 min, HK-2 cells), the “activation of AKT” value is given as ~45 fold and the “activation of ERK” value is listed as ~35 fold. The “activation of AKT and p38” value in assay [2] (cells treated with cisplatin) is “marked and sustained activation”. Moreover, the “protection against renal IR injury, post-ischemic treatment” value in assay [3] (1.5 mg/kg given 30 min. after reperfusion) is “protective against renal IR injury”. Further, in assay [3] (4.5 mg/kg s.c. 10 min. before renal ischemia), the “renal protection at higher dose compared with 1.5 mg/kg” value is on record as “provided reduced renal protection”. In addition, the “increases in plasma creatinine after renal IR” value in assay [3] (0.5, 1.5 or 4.5 mg/kg s.c. 10 min. before 30 min. renal ischemia, 24 hr. reperfusion) is on record as “significantly attenuated the increases in plasma creatinine”. In assay [3] (given 60 min. after reperfusion), the “protection against renal IR injury, post-ischemic treatment” value is given as “did not provide renal protection”. The plasma creatinine in assay [3] (recombinant renalase 1.5 mg/kg, 30 min. warm ischemia, decreased from ~2.4 mg/dL) was 1.4 mg/dL. The “LDH released at 6 hr” value in the assay on HK-2 cells (10 μg/ml, 2 mM H2O2, vehicle LDH=47+3%) came to 28±2%. In the assay on HK-2 cells (vs. vehicle-treated HK-2 cells), the “necrosis induced with 2 mM H2O2” value was “significantly reduced necrosis”.
